Reference: article PMC7402034

Biological target: SARS-CoV-2 S protein trimer (with mutations R683A and R685A, His-tag) (SARS-CoV-2) (UniProt P0DTC2)
Assay: ELISA

Point of comparison: “Human DC-SIGNR (Fc-tag) (from UniProt Q9H2X3) (Fc fusion)”, Kd 0.986 nM. Against it:
- Human DC-SIGN (Fc-tag) (from UniProt Q9NNX6) (Fc fusion) — 5.1-fold lower, 0.192 nM
- Human MGL (Fc-tag) (from UniProt Q8IUN9) (Fc fusion) — 3.2-fold lower, 0.312 nM
